Assay results published in publication PMC7350762.

Target: Myc-tagged MKL-1 (1–705) (MKL-1△TAD) (UniProt Q969V6)
Chain of UniProt Q969V6 (Q969V6 1-705): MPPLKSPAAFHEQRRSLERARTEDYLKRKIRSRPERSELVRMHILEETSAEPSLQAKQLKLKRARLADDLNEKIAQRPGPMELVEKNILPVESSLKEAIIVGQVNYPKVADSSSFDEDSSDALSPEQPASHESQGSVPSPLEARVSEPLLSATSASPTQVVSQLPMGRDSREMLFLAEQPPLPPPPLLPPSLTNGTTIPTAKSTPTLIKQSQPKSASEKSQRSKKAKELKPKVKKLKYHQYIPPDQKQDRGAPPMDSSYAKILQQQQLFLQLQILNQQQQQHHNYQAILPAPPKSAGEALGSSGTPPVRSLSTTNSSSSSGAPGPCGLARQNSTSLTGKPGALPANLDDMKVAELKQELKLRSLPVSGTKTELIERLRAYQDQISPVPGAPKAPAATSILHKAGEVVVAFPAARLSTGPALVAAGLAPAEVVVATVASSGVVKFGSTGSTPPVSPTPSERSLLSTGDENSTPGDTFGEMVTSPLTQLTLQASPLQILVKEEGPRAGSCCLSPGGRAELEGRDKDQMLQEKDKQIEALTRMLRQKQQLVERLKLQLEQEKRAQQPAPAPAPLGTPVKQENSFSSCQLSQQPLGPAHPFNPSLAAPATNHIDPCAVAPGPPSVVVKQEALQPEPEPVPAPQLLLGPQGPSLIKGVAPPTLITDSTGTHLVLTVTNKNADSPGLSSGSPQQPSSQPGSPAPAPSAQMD

reduction in MKL-1 transactivation of the Foxp3 reporter (luciferase assay, HEK-293 T cells) by the mutation of the TAD of MKL-1: 60%
Substance: Flag-tagged STAT5b (WT-STAT5b) (from UniProt P51692 1-787) (natural protein)
